Laboratory results: US20110098224A1, “PROTEIN KINASE C PEPTIDE MODULATORS OF ANGIOGENESIS” (priority 2005, published 2011)

Tests used:
[1] = Stability testing of peptide variants (scored); type: physicochemical
Excerpt: Stability, Miles Assay activity and corneal angiogenesis activities of a number of the peptides were investigated, and scored.

[2] = Topical distribution of radiolabeled TAT peptide after instillation to rabbit eyes; type: in vivo; details: rabbit eye
Description: Radiolabeled TAT peptide [^14C]-YGXaaRKKRRQRRR (SEQ ID NO:19) (10 μCi) was applied in 5 instillations to each eye (50 μCi total—4 rabbits, 2 eyes each, n=8 eyes, 3 mg total applied to each eye). Each application was 1 hour apart, animals sacrificed 15 minutes after last application. Tissue samples were taken and assayed to determine topical distribution.

new vessel growth = details: rats, given systemically; cited from earlier work
[3] = test system: primary rat retinal pigment epithelial cells (RPEs); details: cited from earlier work
[4] = test system: VEGF-induced vascular permeability; assay: Miles assay (Evans Blue dye extravasation after intradermal VEGF with PKC modulator); type: in vivo; details: increasing VEGF doses
Description: In this study animals were injected intravenously with Evans Blue Dye. Animals were administered VEGF in increasing doses with a PKC modulator intradermally. […] The spots were removed, the dye extracted and quantities were measured spectrophotometrically.
A parent compound, βIV5-3 (SEQ ID NO:6) and a peptide variant—a linear version of the peptide, linear βI, having the sequence […] (SEQ ID NO:18)—were tested in the Miles assay.
The Miles assay was similarly performed with a βIPKC (βIV5-3 (SEQ ID NO:6)) inhibitor, a βIIPKC (βIIV5-3 (SEQ ID NO:8)) inhibitor, a classical ((β-, α-, γPKC) PKC inhibitor (βC2-4 (SEQ ID NO:10), and the scrambled control 1 peptide from Example 2 (SEQ ID NO:12) conjugated to TAT (SEQ ID NO:5).

In the case of GQEVIRNGGYGRKKRRQRRR [linear bII], the Stability testing [1] is reported as “−”.
For “GEEVIRNISGYGRKKRRQRRR [bII linear analog]”, the Stability testing [1] was “+++”.
In the case of GKLFIMNADGYGRKKRRQRRR [Linear bI (4)], the Stability testing [1] is reported as “++”.
With “[^14C]-YGXaaRKKRRQRRR [Radiolabeled TAT peptide]” the “Topical distribution, Sclera” value ([2]; 5 instillations 1 hour apart, 3 mg total per eye, 15 minutes after last application) was 28.4 μ/g tissue, the “Choroid, applied total dose” value ([2]; topical) was 0.003% and the “Retina, applied total dose” value ([2]; topical) was 0.001%. The “Sclera, applied total dose” value ([2]; topical) was 0.134% and the “Vitreous, applied total dose” value ([2]; topical) was 0.006%.
With “GKLFIMNLSGYGRKKRRQRRR (GKLFIMNAGGYGRKKRRQRRR) [bI linear analog]” the Stability testing [1] was “++”.
For Cn1cc(C2=C(c3cn(C4CCN(Cc5ccccn5)CC4)c4ccccc34)C(=O)NC2=O)c2ccccc21 [LY317615], the new vessel growth (new vessel growth) is given as “prevent new vessel growth”.
For GKLFIMNAGGYGRKKRRQRRR [Linear bI (6)], the Stability testing [1] was “++”.
With GKLFIMNLDGYGRKKRRQRRR [Linear bI (3)] the Stability testing [1] was “++”.
In the case of CCCCCCCCCCCCCC(=O)O[C@@H]1[C@@H](C)[C@@]2(O)[C@@H](C=C(CO)C[C@]3(O)C(=O)C(C)=C[C@@H]23)[C@@H]2C(C)(C)[C@]12OC(C)=O [PMA], the “PKC-delta level in RPEs” value ([3]; exposure for 24 hours) is listed as “significantly down regulated” and the “Secretion of VEGF” value ([3]; normal or high glucose, or hypoxia, treatment for 24 hours) is listed as “significantly reduced”.
In the case of GSLNPEWNETGGYGRKKRRQRRR [linear bC2-4], the Stability testing [1] is reported as “+++”.
With GKLFIMNLGYGRKKRRQRRR [Linear bI (5)] the Stability testing [1] was “+++”.
With “GKLFIMNGGYGRKKRRQRRR (GKLFIMNLSGYGRKKRRQRRR) [linear bI, a linear version of the peptide βIV5-3]” the “VEGF-induced vascular permeability in comparison to vehicle alone” value [4] was “reduced vascular permeability”.
